According to US20250186602A1, “HUMANIZED ANTIBODY THAT BONDS TO EVA1 PROTEIN OR FUNCTIONAL FRAGMENT THEREOF, ANTIBODY-DRUG CONJUGATE AND CHIMERIC ANTIGEN RECEPTOR” (CURED INC., priority 2022, published 2025):
“Also recorded” adds a separate entry of the source.

T1: hEva1-mouse Fc (human, UniProt O60487 27-154, limits assumed)
T1 construct: SPR analyte; the '1' is probably the first concentration (1 nM); also called hEva1-mouse Fc1 (so in the source); not shown: mouse Fc
T1 sequence: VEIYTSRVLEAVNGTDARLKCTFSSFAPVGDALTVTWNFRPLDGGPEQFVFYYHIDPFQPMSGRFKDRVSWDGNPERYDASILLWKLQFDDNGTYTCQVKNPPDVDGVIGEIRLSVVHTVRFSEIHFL

B1: chimeric human IgG1 (constant regions of the B2E5-48 mouse antibody replaced by those of human IgG type 1) (antibody, V domains shown)
VH: QVQLQQPGAELVKPGASVKLSCKASGYTFTNYWMHWVKLRPGQGFEWIGEINPTNGGTDYNEKFKRKATLTVDKSSSTAYMQLSSLTSEDSAVYYCTIYTTALDYWGQGTTLTVSS
VL: QIVLTQSPALMSASPGERVTLTCSASSSVGYMYWYQQKPGSSPKPWIYVTSNLASGVPARFSGSGSGTSYSLTISSMEAEDAATYYCQQWSSNPPTFGAGTKLELK
notes: Mouse B2E5-48 variable regions on human IgG1 constant regions; The same construct was made in HEK293T cells and in CHO cells and both preparations were measured; also called Chimeric antibody (CHO); Chimeric antibody (293T)
B2: Chimeric antibody (CHO): chimeric human IgG1 obtained by substituting the constant regions of the B2E5-48 mouse antibody with those of human IgG type 1; control (antibody, V domains shown)
VH: QVQLQQPGAELVKPGASVKLSCKASGYTFTNYWMHWVKLRPGQGFEWIGEINPTNGGTDYNEKFKRKATLTVDKSSSTAYMQLSSLTSEDSAVYYCTIYTTALDYWGQGTTLTVSS
VL: QIVLTQSPALMSASPGERVTLTCSASSSVGYMYWYQQKPGSSPKPWIYVTSNLASGVPARFSGSGSGTSYSLTISSMEAEDAATYYCQQWSSNPPTFGAGTKLELK
B3: Chimeric antibody (293T): chimeric human IgG1 obtained by substituting the constant regions of the B2E5-48 mouse antibody with those of human IgG type 1; control (antibody, V domains shown)
VH: QVQLQQPGAELVKPGASVKLSCKASGYTFTNYWMHWVKLRPGQGFEWIGEINPTNGGTDYNEKFKRKATLTVDKSSSTAYMQLSSLTSEDSAVYYCTIYTTALDYWGQGTTLTVSS
VL: QIVLTQSPALMSASPGERVTLTCSASSSVGYMYWYQQKPGSSPKPWIYVTSNLASGVPARFSGSGSGTSYSLTISSMEAEDAATYYCQQWSSNPPTFGAGTKLELK
B4: 125aa: mouse antibody-derived Eval-CAR-T with spacer length 125aa (SEQ ID NO: 62) (protein)
chain: EPKSSDKTHTSPPCPAPEFLGGPSVFLFPPKPKDTLMISRTPEVTCVVVDVSQEDPEVQFNWYVDGVEVHNAKTKPREEQFNSTYRVVSVLTVLHQDWLNGKEYKCKVSNKGLPSSIEKTISKAK
modifications: Hinge region:125aa
B5: H4-L2: humanized B2E5-48 IgG1, VH H4 (SEQ ID NO: 14), VL L2 (SEQ ID NO: 7) (antibody, V domains shown)
VH: QVQLVQSGSELKKPGASVKVSCKASGYTFTNYWMHWVRQAPGQGLEWMGEINPTNGGTDYNEGFTGRFVFSVDKSVSTAYLQISSLKAEDTAVYYCTIYTTALDYWGQGTLVTVSS
VL: EIVLTQSPATLSLSPGERATLSCRASSSVGYMYWYQQKPGQAPRPLIYVTSNRATGIPARFSGSGSGTDYTLTISSLEPEDFAVYYCQQWSSNPPTFGQGTKLEIK
modifications: Variable Region of Heavy Chain 4 (Humanized B2E5-48); Variable Region of Light Chain 2 (Humanized B2E5-48)
B6: H4-L4: humanized B2E5-48 IgG1, VH H4 (SEQ ID NO: 14), VL L4 (SEQ ID NO: 8) (antibody, V domains shown)
VH: QVQLVQSGSELKKPGASVKVSCKASGYTFTNYWMHWVRQAPGQGLEWMGEINPTNGGTDYNEGFTGRFVFSVDKSVSTAYLQISSLKAEDTAVYYCTIYTTALDYWGQGTLVTVSS
VL: DIQLTQSPSFLSASVGDRVTITCRASSSVGYMYWYQQKPGKAPKPLIYVTSNLASGVPSRFSGSGSGTEYTLTISSLQPEDFATYYCQQWSSNPPTFGQGTKLEIK
modifications: Variable Region of Heavy Chain 4 (Humanized B2E5-48); Variable Region of Light Chain 4 (Humanized B2E5-48)
B7: H4-L3: humanized B2E5-48 IgG1, VH H4 (SEQ ID NO: 14), VL L3 (SEQ ID NO: 10) (antibody, V domains shown)
VH: QVQLVQSGSELKKPGASVKVSCKASGYTFTNYWMHWVRQAPGQGLEWMGEINPTNGGTDYNEGFTGRFVFSVDKSVSTAYLQISSLKAEDTAVYYCTIYTTALDYWGQGTLVTVSS
VL: QIQLTQSPSFLSASVGDRVTITCRASSSVGYMYWYQQKPGKAPKPLIYVTSNLASGVPSRFSGSGSGTEYTLTISSLQPEDFATYYCQQWSSNPPTFGQGTKLEIK
modifications: Variable Region of Heavy Chain 4 (Humanized B2E5-48); Variable Region of Light Chain 3 (Humanized B2E5-48)
B8: 232aa: mouse antibody-derived Eval-CAR-T with spacer length 232aa (SEQ ID NO: 63) (protein)
chain: EPKSSDKTHTSPPCPAPEFLGGPSVFLFPPKPKDTLMISRTPEVTCVVVDVSQEDPEVQFNWYVDGVEVHNAKTKPREEQFNSTYRVVSVLTVLHQDWLNGKEYKCKVSNKGLPSSIEKTISKAKGQPREPQVYTLPPSQEEMTKNQVSLTCLVKGFYPSDIAVEWESNGQPENNYKTTPPVLDSDGSFFLYSRLTVDKSRWQEGNVFSCSVMHEALHNHYTQKSLSLSLGK
modifications: Hinge region:232aa

Experiments:
Eval-positive HuCCT-1 = experiment: Amplification of Eval-CAR-T after antigen stimulation (co-culture with irradiated Eval-positive HuCCT-1); assay type: cell-based, human
Experimental: Eval-positive HuCCT-1, was irradiated with a radioactive ray of 100 Gy, and was co-cultured with the CAR-Ts in 1:1, and the amplification efficiencies of these were analyzed. In FIG. 3J, amplification efficiencies in time series are shown. In FIG. 3K, the amplification factors at Day 4 were plotted.
In the same manner as described above, Eval-positive HuCCT-1, was irradiated with a radioactive ray of 100 Gy, and was co-cultured with the CAR-T-cells in 1:1. Then, 50 U/ml of IL-2 was added once every three days, at Day 1, 4, and 7, followed by culturing. In FIG. 3L, the respective amplification efficiencies in time series are shown. In FIG. 3M, the amplification factors at Day 18 were plotted.
In the same manner as described above, Eval-positive HuCCT-1, was irradiated with a radioactive ray of 100 Gy, and was co-cultured with hEva1 CAR-T-cells in 1:1.
In the same manner as described above, Eval-positive HuCCT-1, was irradiated with a radioactive ray of 100 Gy, and was co-cultured with hEva1-CAR-Ts in 1:1.

[1] = tested on: various tumor cell lines (Eval positive and Eval negative); experiment: Cytokine production of Eval-CAR-T co-cultured with tumor cell lines (intracellular staining, flow cytometry); assay type: cell-based, human; conditions: co-culture 1:1, 6 hours, Day 17 cells
Experimental: Next, the cytokine production capacity of the Eval-CAR-T using the anti-human Eval mouse antibody sequence was analyzed. Specifically, CAR-T prepared as described above was cultured until day 17, and the cells were co-cultured with various main cell lines in 1:1. After co-culturing for 6 hours, immobilization and intracellular staining (BD cytofix/cytoperm buffer) were conducted to stain the cells with IFN-gamma (IFN-γ).
The experiment was conducted by using the above-described Eval-CAR-Ts at Day 17. Specifically, the Eval-CAR-Ts were co-cultured with tumor cell lines in 1:1, and the cells were immobilized and stained in the same methods as described above after 6 hours, and intracellular IFN-gamma and IL-2 were evaluated with flow cytometry.
(§1) The experiment was conducted by using hEva1-CAR-Ts at Day 17. Specifically, hEva1-CAR-Ts were co-cultured with tumor cell lines in 1:1, and the cells were immobilized and stained in the same manner as described above after 6 hours, and intracellular IFN-gamma and IL-2 were evaluated with flow cytometry. These figures show the percentages at which the cytokine was positive among the CD8 positive cells.
as §1, with “using the above-described” for “using”, “Specifically, the” for “Specifically,”, “after […]” for “after 6”, “which each” for “which the”

hEva1-mouse Fc [2] = molecular target: T1, hEva1-mouse Fc; experiment: SPR (BiaCore T200), single-cycle kinetics; antibody captured by anti-human IgG on CM5 chip, hEva1-mouse Fc as analyte; antibody made in CHO cells
hEva1-mouse Fc [3] = molecular target: T1, hEva1-mouse Fc; experiment: SPR (BiaCore T200), single-cycle kinetics; antibody captured by anti-human IgG on CM5 chip, hEva1-mouse Fc as analyte; antibody made in HEK293T cells
Experimental: (§2) The dissociation constants and association constants of the humanized antibodies and the like were analyzed by using surface plasmon resonance (SPR, product name: BiaCore T200 (manufactured by GE healthcare)).
Specifically, first, human IgG capture antibodies were immobilized on a CM5 chip by an amine coupling method. […] Then, the kinetics analysis on the anti-Eval antibody and hEva1 was conducted by a single-cycle method using the following measurement conditions.

hEva1-mouse Fc [4] = experiment: Surface plasmon resonance kinetics analysis (BiaCore T200, single-cycle); assay type: binding, human; conditions: SPR, antibody captured 5 nM, analyte hEva1-mouse Fc 1-250 nM, HBS-EP+ pH 7.4
Experimental: as §2
Specifically, first, human IgG capture antibodies were immobilized on a CM5 chip by an amine coupling method. This immobilization was conducted in both reference cells and active cells. Then, the kinetics analysis on the anti-Eval antibody and hEva1 was conducted by a single-cycle method using the following measurement conditions.
• Sample compartment temperature: 10° C. • Running buffer: HBS-EP+buffer, pH 7.4 • Capturing molecule: Human IgG antibody, reference & active cells • Ligand: Various antibodies 5 nM, active cells only • Analyte: hEva1-mouse Fc1, 5, 25, 125, 250 nM, reference & active cells • Regeneration buffer: 3M MgCl2, reference & active cells • 3 cycles of Blanks (Analyte zero concentration)

[5] = 50 U/ml IL-2 at Day 1, 4, 7, co-culture 1:1 with HuCCT-1 irradiated 100 Gy
[6] = absence of IL-2, co-culture 1:1 with HuCCT-1 irradiated 100 Gy

| Molecule | amplification efficiency after Eval stimulation (Eval-positive HuCCT-1; [5]) | amplification efficiency after Eval stimulation (Eval-positive HuCCT-1; [6]) | cytokine production (intracellular IFN-gamma and IL-2) [1] | ka (hEva1-mouse Fc [4]) | kd (hEva1-mouse Fc [4]) | other results |
| --- | --- | --- | --- | --- | --- | --- |
| 15aa: mouse antibody-derived Eval-CAR-T with spacer length 15aa (SEQ ID NO: 59) (EPKSSDKTHTSPPCP; Hinge region:15aa) | cell amplifications tended to be better; also recorded: most excellent in cell growth | higher cell amplifications |  |  |  |  |
| 30aa: mouse antibody-derived Eval-CAR-T with spacer length 30aa (SEQ ID NO: 60) (EPKSSDKTHTSPPCPAPEFLGGPSVFLFPP; Hinge region:30aa) | cell amplifications tended to be better | higher cell amplifications | excellent cytokine productions |  |  |  |
| B1 |  |  |  |  |  | Kd (hEva1-mouse Fc [2]): 445 nM; koff (hEva1-mouse Fc [2]): 0.00845 s⁻¹; kon (hEva1-mouse Fc [2]): 19000 M⁻¹ s⁻¹; Kd (hEva1-mouse Fc [3]): 482 nM; koff (hEva1-mouse Fc [3]): 0.00947 s⁻¹; kon (hEva1-mouse Fc [3]): 19600 M⁻¹ s⁻¹ |
| B2 |  |  |  | 19010 M⁻¹ s⁻¹ | 0.008447 s⁻¹ |  |
| B3 |  |  |  | 19640 M⁻¹ s⁻¹ | 0.00947 s⁻¹ |  |
| B4 |  |  | excellent cytokine productions |  |  |  |
| B5 |  |  |  | 18980 M⁻¹ s⁻¹ | 0.01457 s⁻¹ |  |
| B6 |  |  |  | 15340 M⁻¹ s⁻¹ | 0.01525 s⁻¹ |  |
| B7 |  |  |  | 15480 M⁻¹ s⁻¹ | 0.01357 s⁻¹ |  |
| B8 | cell amplifications tended to be better | higher cell amplifications; also recorded: most excellent in cell growth and cytokine production | most excellent cytokine production capacity |  |  |  |
